In paper PMC11329700 (2024):

B1: GST-Dyn1xA-PRR (dynamin 1xA proline-rich region, amino acids 746-864) [rat] / Amphiphysin 1 [rat (endogenous in rat brain synaptosomes)] (parent complex)
chain 1: NTTTVSTPMPPPVDDSWLQVQSVPAGRRSPTSSPTPQRRAPAVPPARPGSRGPAPGPPPAGSALGGAPPVPSRPGASPDPFGPPPQVPSRPNRAPPGVPSRSGQASPSRPESPRPPFDL
chain 2: MADIKTGIFAKNVQKRLNRAQEKVLQKLGKADETKDEQFEEYVQNFKRQEAEGTRLQRELRGYLAAIKGMQEASMKLTESLHEVYEPDWYGREDVKMVGEKCDVLWEDFHQKLVDGSLLTLDTYLGQFPDIKNRIAKRSRKLVDYDSARHHLEALQSSKRKDESRISKAEEEFQKAQKVFEEFNVDLQEELPSLWSRRVGFYVNTFKNVSSLEAKFHKEIAVLCHKLYEVMTKLGDQHADKAFSIQGAPSDSGPLRIAKTPSPPEEASPLPSPTASPNHTLAPASPAPVRPRSPSQTRKGPPVPPLPKVTPTKELQQENIINFFEDNFVPEINVTTPSQNEVLEVKKEETLLDLDFDPFKPDVTPAGSAAATHSPMSQTLPWDLWTTSTDLVQPASGGSFNDFTQPQDTSLFTMQTDQNMAETEQALPTEPQAEEPPTTAAAPTAGLDLGLEMEEPKEEAAIPPGTDAGETVGTEGSTGEEAEAEKAALPAGEGESPEGAKIDVESTELASSESPQAAELEAGAPQEKVIPSVVIEPASNHEGEEHQETTTGTETREATEDVAPQGPAGEKQELATEPTPLDSQAATPAPAGAVDASLSAGDAAQELPPGFLYKVETLHDFEAANSDELTLQRGDVVLVVPSDSEADQDAGWLVGVKESDWLQYRDLATYKGLFPENFTRHLE

Variants of: B1
Assay: GST pull-down, quantified Western blot; parent: 60; read off a plot

Question: Which response does the source give for chain 1 NTTTVSTPMPPPVDDSWLQVQSVPAGRRSPTSSPTPQRRAPAVPPARPGSRGPAPGPPPAGSALGGAPPVPSRPGASPDPFGPPPQVPSRPNRAPPGVPSASGQASPSRPESPRPPFDL [chain 1 R101A] here?
Answer: ~51 normalized intensity
